# Patent US11292821B2, “Peptides and combination of peptides for use in immunotherapy against lung cancer, including NSCLC, SCLC and other cancers” (Immatics Biotechnologies GmbH, priority 2017, dated 2022)
# Legend:
# HLA-A*03 = HLA-A*03 (Homo sapiens, UniProt P04439); assay: MHC binding assay (UV-ligand exchange, β2m ELISA)
# CD8+ T cells = assay: In vitro T-cell priming assay with aAPCs (in vitro immunogenicity for MHC class I presented peptides); assay type: cell-based, human; conditions: in vitro immunogenicity
# HLA-B*08 = assay: MHC binding assay (UV-ligand exchange, β2m ELISA); parameters: species or system human
# HLA-A*02 = HLA-A*02 (Homo sapiens, UniProt P04439, D140Y/D185E/D98H/E176V/E277Q/G131W/G231S/I119V/I121R/I166T/I218V/N151K/N90K/P208A/P217A/Q86G/Q94H/R138H/R169H); assay: MHC binding assay (UV-ligand exchange, β2m ELISA)
substance,measurement,setting,value
202 (KLAELEGALQK; listed as Homo sapiens) [compound 202],"Peptide exchange (peptide exchange yield, MHC class I binding score)",HLA-A*03,“++++” (>75% = ++++)
456 (SMFTAILKK; listed as Homo sapiens) [compound 456],"Peptide exchange (peptide exchange yield, MHC class I binding score)",HLA-A*03,“++++” (>75% = ++++)
314 (AIISRLVAL; listed as Homo sapiens) [compound 314],Wells positive [%],CD8+ T cells; HLA B*08,“++” (20%-49% = ++)
same,"Peptide exchange (peptide exchange yield, MHC class I binding score)",HLA-B*08,“++++” (>75% = ++++)
97 (VLALVNSTV; listed as Homo sapiens) [compound 97],Wells positive [%],CD8+ T cells; HLA A*02,“+++” (50%-69% = +++)
same,"Peptide exchange (peptide exchange yield, MHC class I binding score)",HLA-A*02,“++++” (>75% = ++++)
214 (RTMSEAALVRK; listed as Homo sapiens) [compound 214],Wells positive [%],CD8+ T cells; HLA A*03,“+” (<20% = +)
same,"Peptide exchange (peptide exchange yield, MHC class I binding score)",HLA-A*03,“++++” (>75% = ++++)
206 (KLIDLSQVMY; listed as Homo sapiens) [compound 206],"Peptide exchange (peptide exchange yield, MHC class I binding score)",HLA-A*03,“++++” (>75% = ++++)
94 (VLPDIETLIGV; listed as Homo sapiens) [compound 94],Wells positive [%],CD8+ T cells; HLA A*02,“+++” (50%-69% = +++)
same,"Peptide exchange (peptide exchange yield, MHC class I binding score)",HLA-A*02,“++++” (>75% = ++++)
208 (GLASRILDAK; listed as Homo sapiens) [compound 208],Wells positive [%],CD8+ T cells; HLA A*03,“+” (<20% = +)
same,"Peptide exchange (peptide exchange yield, MHC class I binding score)",HLA-A*03,“++++” (>75% = ++++)
216 (KLYAWELAF; listed as Homo sapiens) [compound 216],"Peptide exchange (peptide exchange yield, MHC class I binding score)",HLA-A*03,“+++” (>50 = +++)
303 (LPFPKFTV; listed as Homo sapiens) [compound 303],Wells positive [%],CD8+ T cells; HLA B*08,“++” (20%-49% = ++)
same,"Peptide exchange (peptide exchange yield, MHC class I binding score)",HLA-B*08,“++++” (>75% = ++++)
315 (DIYQRALNL; listed as Homo sapiens) [compound 315],Wells positive [%],CD8+ T cells; HLA B*08,“+” (<20% = +)
same,"Peptide exchange (peptide exchange yield, MHC class I binding score)",HLA-B*08,“++++” (>75% = ++++)
457 (SINKPTSER; listed as Homo sapiens) [compound 457],"Peptide exchange (peptide exchange yield, MHC class I binding score)",HLA-A*03,“++++” (>75% = ++++)
204 (AVFDKFIRY; listed as Homo sapiens) [compound 204],"Peptide exchange (peptide exchange yield, MHC class I binding score)",HLA-A*03,“++++” (>75% = ++++)
127 (GLDGSLVFL; listed as Homo sapiens) [compound 127],Wells positive [%],CD8+ T cells; HLA A*02,“++” (20%-49% = ++)
same,"Peptide exchange (peptide exchange yield, MHC class I binding score)",HLA-A*02,“++++” (>75% = ++++)
87 (TLYPYQISQL; listed as Homo sapiens) [compound 87],Wells positive [%],CD8+ T cells; HLA A*02,“++” (20%-49% = ++)
same,"Peptide exchange (peptide exchange yield, MHC class I binding score)",HLA-A*02,“++++” (>75% = ++++)
310 (LPPKKFVL; listed as Homo sapiens) [compound 310],"Peptide exchange (peptide exchange yield, MHC class I binding score)",HLA-B*08,“++++” (>75% = ++++)
205 (SLDGAARPK; listed as Homo sapiens) [compound 205],Wells positive [%],CD8+ T cells; HLA A*03,“++” (20%-49% = ++)
same,"Peptide exchange (peptide exchange yield, MHC class I binding score)",HLA-A*03,“++++” (>75% = ++++)
128 (FLGTTPTL; listed as Homo sapiens) [compound 128],Wells positive [%],CD8+ T cells; HLA A*02,“+” (<20% = +)
same,"Peptide exchange (peptide exchange yield, MHC class I binding score)",HLA-A*02,“++++” (>75% = ++++)
296 (MPMQDIKM; listed as Homo sapiens) [compound 296],"Peptide exchange (peptide exchange yield, MHC class I binding score)",HLA-B*08,“++++” (>75% = ++++)
131 (LLKEFVQRV; listed as Homo sapiens) [compound 131],Wells positive [%],CD8+ T cells; HLA A*02,“++++” (>=70% = ++++)
same,"Peptide exchange (peptide exchange yield, MHC class I binding score)",HLA-A*02,“++++” (>75% = ++++)
88 (VQMVITEAQKV; listed as Homo sapiens) [compound 88],Wells positive [%],CD8+ T cells; HLA A*02,“++” (20%-49% = ++)
same,"Peptide exchange (peptide exchange yield, MHC class I binding score)",HLA-A*02,“++++” (>75% = ++++)
129 (VLYDKDAVYV; listed as Homo sapiens) [compound 129],Wells positive [%],CD8+ T cells; HLA A*02,“++” (20%-49% = ++)
same,"Peptide exchange (peptide exchange yield, MHC class I binding score)",HLA-A*02,“++++” (>75% = ++++)
454 (KVYTPSISK; listed as Homo sapiens) [compound 454],"Peptide exchange (peptide exchange yield, MHC class I binding score)",HLA-A*03,“++++” (>75% = ++++)
212 (KAYEQVMHY; listed as Homo sapiens) [compound 212],"Peptide exchange (peptide exchange yield, MHC class I binding score)",HLA-A*03,“++++” (>75% = ++++)
101 (FIISDWRFVL; listed as Homo sapiens) [compound 101],Wells positive [%],CD8+ T cells; HLA A*02,“+” (<20% = +)
same,"Peptide exchange (peptide exchange yield, MHC class I binding score)",HLA-A*02,“+++” (>50 = +++)
215 (MMFSGPQILKL; listed as Homo sapiens) [compound 215],"Peptide exchange (peptide exchange yield, MHC class I binding score)",HLA-A*03,“++++” (>75% = ++++)
84 (YVDINTFRL; listed as Homo sapiens) [compound 84],Wells positive [%],CD8+ T cells; HLA A*02,“+” (<20% = +)
same,"Peptide exchange (peptide exchange yield, MHC class I binding score)",HLA-A*02,“++++” (>75% = ++++)
453 (AINTSIKNK; listed as Homo sapiens) [compound 453],"Peptide exchange (peptide exchange yield, MHC class I binding score)",HLA-A*03,“++++” (>75% = ++++)
